According to patent US20250186597A1, “TARGETED IMMUNE ACTIVATION WITH IL-18 IMMUNOCYTOKINES” (BRIGHT PEAK THERAPEUTICS AG, priority 2023, published 2025):

Experiments:
[1] = target: T1, human PD-1/CD279 (Homo sapiens, UniProt Q15116); experiment: PD-1 binding ELISA assay (Example 5); settings: biotinylated human PD-1
T1 construct: purchased Biolegend #789406
Protocol: (§1) The interaction of the unmodified antibodies and corresponding IL-18 immunocytokines with relevant immune cell associated antigen are measured by ELISA assay. For these studies, Corning high-binding half-area plates (Fisher Scientific, Reinach, Switzerland) are coated overnight at 4° C. with 25 μl of unmodified antibodies corresponding IL-18 immunocytokines at […] in PBS. […] Plate surfaces are blocked with 25 μl of PBS-0.02% Tween20-1% BSA at 37° C. during 1 h. […] ELISA signal is then measured at 450 nm on an ENSPIRE® plate reader from Perkin Elmer (Schwerzenbach, Switzerland).

[2] = target: T2, human Fc gamma receptors III FcγRIIIa/CD16 (Homo sapiens, UniProt P08637); experiment: Human FcγR binding ELISA, FcγRIIIa/CD16 (Example 8); settings: ELISA binding affinity
T2 construct: purchased R&D systems 4325-FC-050
T2 sequence (P08637 17-254): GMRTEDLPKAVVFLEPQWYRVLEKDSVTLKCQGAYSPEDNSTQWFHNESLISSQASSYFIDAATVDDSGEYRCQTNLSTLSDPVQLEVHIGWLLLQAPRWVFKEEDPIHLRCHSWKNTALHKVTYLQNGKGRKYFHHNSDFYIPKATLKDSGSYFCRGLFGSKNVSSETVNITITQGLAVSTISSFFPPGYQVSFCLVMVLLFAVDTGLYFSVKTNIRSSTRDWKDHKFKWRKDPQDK
Protocol: (§2) The interaction of the unmodified and of conjugated antibodies with human Fc gamma receptors I (FcγRI/CD64), with human Fc gamma receptors IIa (FcγRIIa/CD32a), with inhibitory human Fc gamma receptors IIb (FcγRIIb/CD32b), and with human Fc gamma receptors III FcγRIIIa/CD16 were measured by ELISA.
(§3) Briefly, Corning high-binding half-area plates (Fisher Scientific, Reinach, Switzerland) were coated overnight at 4° C. with 25 μl of unmodified and of conjugated anti-PD1 antibodies at 2.5 μg/ml in PBS. […] Plates surfaces were blocked with 25 μl of PBS-0.02% Tween20-1% BSA at 37° C. during 1 h. […] Twenty-five microliters of a 1/500 HRP-anti-His antibody in PBS—0.02% Tween20—0.1% BSA (R&D systems, anti-HIS—HRP Ab, #MAB050H) were added to each well and plates were incubated at Room Temperature during 1 h. […] ELISA signal was then measured at 450 nm on an EnSpire plate reader from Perkin Elmer (Schwerzenbach, Switzerland).

[3] = target: T3, human PD-L1/B7-H1 (Homo sapiens, UniProt Q9NZQ7); experiment: PD-L1 binding ELISA assay (Example 5); settings: biotinylated human PD-L1
T3 construct: purchased ACROBiosystems PD1-H82E5-25UG
T3 sequence (Q9NZQ7 19-290): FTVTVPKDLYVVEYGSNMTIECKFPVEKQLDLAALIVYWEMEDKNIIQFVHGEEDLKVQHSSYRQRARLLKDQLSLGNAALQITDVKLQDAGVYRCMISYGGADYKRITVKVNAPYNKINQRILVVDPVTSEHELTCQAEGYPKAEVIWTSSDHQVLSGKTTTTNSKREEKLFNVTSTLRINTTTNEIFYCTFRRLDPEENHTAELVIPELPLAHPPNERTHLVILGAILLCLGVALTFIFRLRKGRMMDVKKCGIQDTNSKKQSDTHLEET
Protocol: as §1

[4] = target: T4, human Fc gamma receptors IIa (FcγRIIa/CD32a) (Homo sapiens, UniProt P12318); experiment: Human FcγR binding ELISA, FcγRIIa/CD32a (Example 8); settings: ELISA binding affinity
T4 construct: purchased R&D systems 9595-CD-050
T4 sequence (P12318 34-317): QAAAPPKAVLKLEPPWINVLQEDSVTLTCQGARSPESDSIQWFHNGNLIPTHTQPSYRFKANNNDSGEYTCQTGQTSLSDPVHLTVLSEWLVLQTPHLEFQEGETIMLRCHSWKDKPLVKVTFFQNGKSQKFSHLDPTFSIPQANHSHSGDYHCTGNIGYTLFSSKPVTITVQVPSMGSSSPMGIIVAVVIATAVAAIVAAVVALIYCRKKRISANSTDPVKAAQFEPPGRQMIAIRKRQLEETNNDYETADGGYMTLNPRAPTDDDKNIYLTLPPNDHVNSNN
Protocol: as §2, §3

[5] = target: T5, human neonatal Fc receptor (FcRn) (Homo sapiens, UniProt P55899); experiment: Human FcRn binding AlphaLISA at pH 6 (Example 9)
T5 construct: purchased Perkin Elmer AL3095C
T5 sequence (P55899 24-297 limits assumed): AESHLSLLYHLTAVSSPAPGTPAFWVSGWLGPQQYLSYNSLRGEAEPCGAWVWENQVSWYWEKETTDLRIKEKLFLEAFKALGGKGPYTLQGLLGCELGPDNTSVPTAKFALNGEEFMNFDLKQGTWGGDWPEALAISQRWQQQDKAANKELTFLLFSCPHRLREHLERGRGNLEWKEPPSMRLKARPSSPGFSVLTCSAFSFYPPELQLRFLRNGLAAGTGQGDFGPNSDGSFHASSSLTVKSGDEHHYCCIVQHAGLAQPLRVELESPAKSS
T5 sequence (P61769 21-119 partner): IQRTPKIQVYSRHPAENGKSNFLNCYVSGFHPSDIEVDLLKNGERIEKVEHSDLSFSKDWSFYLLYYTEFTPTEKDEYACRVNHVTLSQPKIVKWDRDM
Protocol: The interaction of the unmodified and of conjugated anti-PD1 antibodies with the human neonatal Fc receptor (FcRn) at pH 6 was measured using the AlphaLISA® Human FcRn Binding Kit (AL3095C) from Perkin Elmer (Schwerzenbach, Switzerland). […] When reference IgG binds to FcRn, donor and acceptor beads come into proximity enabling the transfer of singlet oxygen that trigger a cascade of energy transfer reactions in the acceptor beads, resulting in a sharp peak of light emission at 615 nm. Addition of a free IgG antibodies into the AlphaLISA® mixture creates a competition for the binding of FcRn to the reference antibody resulting in a loss of signal.
After 90 min at 23° C. in the dark, AlphaLISA® signal was measured on an EnSpire plate reader (Excitation at 680 nm, Emission at 615 nm) from Perkin Elmer (Schwerzenbach, Switzerland).

[6] = target: T6, human Fc gamma receptors IIb (FcγRIIb/CD32b) (Homo sapiens, UniProt P31994); experiment: Human FcγR binding ELISA, FcγRIIb/CD32b (Example 8); settings: ELISA binding affinity
T6 construct: purchased R&D systems AVI1875-050
T6 sequence (P31994 43-310): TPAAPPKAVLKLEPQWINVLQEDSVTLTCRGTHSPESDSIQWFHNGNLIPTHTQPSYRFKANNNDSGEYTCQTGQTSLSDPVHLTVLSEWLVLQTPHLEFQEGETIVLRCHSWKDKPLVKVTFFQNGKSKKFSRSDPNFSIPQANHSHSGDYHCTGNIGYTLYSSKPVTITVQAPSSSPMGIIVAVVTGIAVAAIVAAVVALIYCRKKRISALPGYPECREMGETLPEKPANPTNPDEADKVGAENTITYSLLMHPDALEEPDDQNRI
Protocol: as §2, §3

[7] = target: T7, human Fc gamma receptors I (FcγRI/CD64) (Homo sapiens, UniProt P12314); experiment: Human FcγR binding ELISA, FcγRI/CD64 (Example 8); settings: ELISA binding affinity
T7 construct: purchased R&D systems 1257-FC-050
T7 sequence (P12314 16-374): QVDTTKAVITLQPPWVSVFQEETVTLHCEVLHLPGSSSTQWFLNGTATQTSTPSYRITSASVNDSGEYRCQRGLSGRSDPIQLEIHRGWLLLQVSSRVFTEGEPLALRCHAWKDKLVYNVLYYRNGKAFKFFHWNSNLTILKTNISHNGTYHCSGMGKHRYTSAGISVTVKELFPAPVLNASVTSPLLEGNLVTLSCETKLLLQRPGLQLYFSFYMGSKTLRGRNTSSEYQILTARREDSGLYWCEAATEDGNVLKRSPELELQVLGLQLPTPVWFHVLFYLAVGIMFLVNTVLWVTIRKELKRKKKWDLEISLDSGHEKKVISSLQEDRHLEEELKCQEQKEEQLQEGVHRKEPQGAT
Protocol: as §2, §3

[8] = test system: parental PD-1 negative KG-1 cells; experiment: IFN gamma secretion assay in parental PD-1 negative KG-1 cells (Example 11); assay type: cell-based, human; settings: IFNγ secretion
Protocol: (§4) The KG-1 cell line was used to generate a PD-1 expressing cell line and furthermore, to measure IFNγ release upon incubation with IL-18 variants and corresponding IL-18 immunocytokines.
(§5) IFNγ release was assessed in PD-1 positive (transduced) KG-1 cells, as well as in the parental PD-1 negative cells. 0.5×10^5 cells were seeded into a 96-well U-bottom plate in culture media (RPMI, 10% FBS, 1% L-Glutamine) and stimulated with IL-18 variants/ICs for 20-24 h. The test items were diluted to 100 nM in culture medium, followed by 7 10-fold serial dilutions. The lowest concentration assessed was […]. After incubation, IFNγ release was measured using the LEGENDplex custom human mix and match KIT (Biolegend LEGENDplex™ Human IFN-γ Capture Bead B5, 13X #740942, LEGENDplex™ HU Essential Immune Response Panel Detection Abs, #740931, LEGENDplex™ Buffer Set A #740368). To this end, cell culture supernatant was collected and diluted 1:1 with Assay Buffer. Fluorescence measurements were done with a Quanteon Flow Cytometer from Acea Biosciences. For analysis, MFI values (median fluorescence intensity) were exported and plotted against concentrations used. The EC50 values (half maximal effective concentration) were calculated based on a variable slope and four parameter analysis using GraphPad PRISM software version 9.

[9] = test system: NK92 cells; experiment: IFN gamma secretion assay in NK92 cells (Example 10); assay type: cell-based, human; settings: IFNγ secretion, 1 ng/ml IL-12
Protocol: The IFNγ-secretion stimulating activity of the unconjugated IL-18 variants and corresponding IL-18 immunocytokines was evaluated on NK92 cell line. The NK cell line NK-92 derived from a patient with lymphoma (ATCC, Cat #CRL-2407) was cultured in aMEM medium supplemented with 12.5% FCS, 12.5% horse serum (HS), 50 uM B-mercaptoEthanol, and 2 ng/ml of recombinant Human Interleukin-2 (IL-2).
On the day of experiment, cells were harvested and washed with aMEM medium without IL-2 and resuspended in medium (w/o IL-2) containing 1 ng/ml of recombinant human Interleukin-12 (SinoBiologicals, Cat #CT011-H08H). After counting, cells were seeded at 100 000 cells/well in a 384 well titer plate and incubated at 37° C./5% CO2. Sixteen 4-fold serial dilutions of IL-18 analytes were prepared in aMEM medium—1 ng/ml IL-12 and were added to the NK-92 cells. […]
(§6) After 16-20 h incubation at 37° C./5% CO2, 5 μl of supernatant were carefully transferred to a 384 microwells OPTIPlate (Perkin Elmer; Cat #6007270) and Interferon-gamma (IFNγ) levels measured using the Human IFNγ AlphaLISA Assay Kit (Perkin Elmer, Cat #AL217C). […] AlphaLisa signal was then measured on an Enspire plate reader (Perkin Elmer) using 680 and 615 nm as excitation and emission wavelengths respectively. Half maximal effective concentration (EC50) was calculated based on a variable slope, four parameter analysis using GraphPad PRISM software.

[10] = target: T8, human IL-18 Binding Protein (IL-18BP) (Homo sapiens, UniProt O95998); experiment: IL-18 Binding Protein alphaLISA assay (Example 12); settings: human IL-18BP
T8 sequence (O95998 31-194): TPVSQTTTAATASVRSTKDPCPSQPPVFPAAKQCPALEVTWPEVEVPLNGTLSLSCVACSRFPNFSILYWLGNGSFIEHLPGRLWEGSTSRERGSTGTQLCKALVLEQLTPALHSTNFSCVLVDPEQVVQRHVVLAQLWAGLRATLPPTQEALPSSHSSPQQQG
Protocol: Wild type or modified IL-18 polypeptides samples were diluted at 5.6 μM in a solution of 1× alphaLISA Immunoassay Buffer provided in the alphaLISA IFNγ Detection kit and were diluted applying 3-fold serial dilutions down to […] in 384 deep well plates. A solution of 10 ng/ml of human IL-18BP-His was prepared with 1×alphaLISA Immunoassay Buffer. IL-18/IL-18BP complex formation was performed incubating 30 μl of IL-18BP solution to IL-18 sample titrations for 1 h at 20° C. IL-18BP standard was prediluted from stock solution supplied in alphaLISA IFNγ Detection kit at 100 ng/ml with 1×alphaLISA Buffer and titration prepared from applying 2-fold serial dilutions. The following solutions were prepared: a 50 μg/ml solution of anti-IL-18BP alphaLISA Acceptor beads, a 5 nM solution of biotinylated anti-IL18BP antibody and a 80 μg/ml light-protected solution of Streptavidin Donor beads in 1×alphaLISA Immunoassay Buffer. […]
5 μl of Biotinylated anti-IL-18BP antibody were added, followed by a short centrifugation step at 150 g, and incubated for 60 minutes at 20° C. under shaking at 750 rpm. […] AlphaLisa signal was then measured on an Enspire plate reader (Perkin Elmer) using 680 and 615 nm as excitation and emission wavelengths respectively. […]

[11] = test system: NK92 cells; experiment: Cellular IL-18 Binding Protein resistance assay in NK92 cells (Example 13); assay type: cell-based, human; settings: IL-18BP-mediated inhibition of IFNγ secretion, IL-18 analyte 1 nM
Protocol: The NK cell line NK-92 derived from a patient with lymphoma (ATCC, Cat #CR^L-2407) was cultured in αMEM medium supplemented with 20% FCS-Glutamax, 25 μM B-mercaptoethanol, and 100 IU/ml of recombinant Human Interleukin-2 (IL-2). On the day of experiment, cells were harvested and washed with αMEM medium without IL-2. After counting, cells were seeded at 100 000 cells/well in a 384 well titer plate and incubated at 37° C./5% CO2. Sixteen 2-fold serial dilutions of Fc fused human IL-18 binding protein isoform a (IL-18BPa; R&D systems, Cat #119-BP) were prepared in αMEM medium—1 ng/ml IL-12 containing 2 nM of each IL-18 variants and were added to the NK-92 cells. Final IL-18 analytes concentration was 1 nM and final IL-18BPa concentrations ranged from to 566 nM down to 17 pM.
as §6, with “OPTIplate” for “OPTIPlate”, “inhibitory” for “effective”, “(IC50)” for “(EC50)”

[12] = test system: PD-1 positive (transduced) KG-1 cells; experiment: IFN gamma secretion assay in PD-1 transduced KG-1 cells (Example 11); assay type: cell-based, human
Protocol: as §4
PD-1 expressing cell line generation: Briefly, KG-1 cells were transduced using lentiviral particles carrying the human PD-1 gene (PDCD1 NM_005018; Origene, CAT #: RC210364L3V) at a MOI (Multiplicity of Infection) of 30. Spinfection was performed at 1260 g during 90 min at 37° C. in the presence of 5 μg/ml of Polybrene and 10 mM of HEPES in complete culture media (RPMI, 10% FBS, 1% L-Glutamine). Five days after transduction, puromycin at a final concentration of 1 ug/ml was added to select for PD-1 positive cells. For culture maintenance, puromycin concentration was decreased to 0.5 μg/ml. Stable and homogenous expression of PD-1 was verified by surface staining (BD Pharmingen, #557860).
as §5

T1 sequence (Q15116 25-288): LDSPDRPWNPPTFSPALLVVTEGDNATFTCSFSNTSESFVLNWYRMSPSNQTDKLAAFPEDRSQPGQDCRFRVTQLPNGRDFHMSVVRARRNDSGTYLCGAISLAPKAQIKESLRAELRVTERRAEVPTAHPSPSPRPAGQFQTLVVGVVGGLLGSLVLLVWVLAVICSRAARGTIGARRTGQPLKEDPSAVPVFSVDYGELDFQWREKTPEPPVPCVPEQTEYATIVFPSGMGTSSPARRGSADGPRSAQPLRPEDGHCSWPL

Substance	Kd [1]	Kd [2]	Kd [3]	Kd [4]	Kd [5]	Kd [6]	Kd [7]	EC50 [8]	EC50 [9]	Kd [10]	IC50 [11]	EC50 ([12]; IFNγ secretion, PD-1 transduced KG-1)	PD-1^neg/PD-1^pos EC50 ratio ([12]; KG-1 cells)
Atezolizumab/Tecentriq	> 100 nM	356 nM	0.443 nM	1370 nM	6.4 nM	> 10000 nM	9.17 nM	–	–	–	–	–	–
SEQ ID NO: 31: IL-18 polypeptide: C38A, C76A, C127A	–	–	–	–	–	–	–	0.148 nM	0.103 nM	0.103 nM	0.282 nM	0.135 nM	1.2
